Experimental data taken from patent publication US20250041418A1.

Molecular target: anti-EGFR antibody (Cetuximab)
Assay: cell-based or functional assay

## CD16a, exogenously expressed on iNK cells
  cytotoxic activity (ADCC activity) against A549 cells expressing EGFR, LDH assay, 4 hr co-culture in the presence of Cetuximab (fold against control iNK cells): 2
